We go through one substance from patent US20220125824A1.

This assay deals with mCherry-MazF (E. coli MazF ribonuclease fused to the C terminus of mCherry) (E. coli) (UniProt P0AE70). In words: cell-based or functional assay.
UniProt P0AE70, sequence (P0AE70 whole entry, the tested form may be a part): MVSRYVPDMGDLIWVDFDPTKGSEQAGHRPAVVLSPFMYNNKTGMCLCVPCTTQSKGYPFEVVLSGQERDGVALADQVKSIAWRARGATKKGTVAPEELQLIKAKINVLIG

As to “E. coli antitoxin MazE (from UniProt P0AE72 1-82)”, the mortality (MTT assay) of lung cancer cells co-infected with MazF and MazE viruses at a 1:0.5 MOI ratio is 36%; the yield of MazF-encoding adenovirus in HEK293 packaging cells that constitutively express MazE, compared with parental HEK293 cells (orders of magnitude) is 2.
